T1: mouse FcγRII extracellular domain, His-tagged GST fusion (mouse, UniProt P08101 30-210)
T1 construct: extracellular domain; also called Mouse II; not shown: His tag and GST
T1 sequence (looked up): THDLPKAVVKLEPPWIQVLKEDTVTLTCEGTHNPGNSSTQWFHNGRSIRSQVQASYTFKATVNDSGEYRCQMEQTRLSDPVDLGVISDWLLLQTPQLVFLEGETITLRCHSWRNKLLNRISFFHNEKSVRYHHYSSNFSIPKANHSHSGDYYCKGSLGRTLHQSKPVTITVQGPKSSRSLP

T2: mouse FcγRI extracellular domain, His-tagged GST fusion (mouse, UniProt P26151 25-297)
T2 construct: extracellular domain; also called Mouse I; mFcγRI; not shown: His tag and GST
T2 sequence (looked up): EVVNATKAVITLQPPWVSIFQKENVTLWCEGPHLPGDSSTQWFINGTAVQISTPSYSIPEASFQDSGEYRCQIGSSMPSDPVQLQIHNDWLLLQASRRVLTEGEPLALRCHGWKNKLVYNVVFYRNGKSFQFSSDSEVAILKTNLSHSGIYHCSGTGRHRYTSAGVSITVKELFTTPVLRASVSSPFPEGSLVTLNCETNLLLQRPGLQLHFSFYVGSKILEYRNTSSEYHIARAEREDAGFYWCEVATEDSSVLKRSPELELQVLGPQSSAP

T3: human FcγRIIb extracellular domain, His-tagged GST fusion (human, UniProt P31994 43-217)
T3 construct: extracellular domain; also called hFcgRIIb; CD32B; not shown: C-terminal Gly/His6/GST tag
T3 sequence (looked up): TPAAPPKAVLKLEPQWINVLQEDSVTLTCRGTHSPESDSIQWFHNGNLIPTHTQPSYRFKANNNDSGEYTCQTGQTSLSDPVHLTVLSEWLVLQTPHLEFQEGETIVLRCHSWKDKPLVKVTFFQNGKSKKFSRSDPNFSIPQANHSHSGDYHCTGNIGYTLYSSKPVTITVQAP

T4: human FcγRIIa extracellular domain, His-tagged GST fusion (human, UniProt P12318 34-217)
T4 construct: extracellular domain; also called hFcgRIIa; CD32A; not shown: C-terminal Gly/His6/GST tag
T4 sequence (looked up): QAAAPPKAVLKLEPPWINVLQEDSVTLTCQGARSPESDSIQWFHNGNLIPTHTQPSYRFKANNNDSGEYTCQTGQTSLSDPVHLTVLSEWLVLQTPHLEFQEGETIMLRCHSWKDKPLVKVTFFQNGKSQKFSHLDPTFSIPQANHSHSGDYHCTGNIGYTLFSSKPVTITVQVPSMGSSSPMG

T5: mouse FcγRIII extracellular domain, His-tagged GST fusion (mouse, UniProt P08508 31-215)
T5 construct: extracellular domain; also called Mouse III; not shown: His tag and GST
T5 sequence (looked up): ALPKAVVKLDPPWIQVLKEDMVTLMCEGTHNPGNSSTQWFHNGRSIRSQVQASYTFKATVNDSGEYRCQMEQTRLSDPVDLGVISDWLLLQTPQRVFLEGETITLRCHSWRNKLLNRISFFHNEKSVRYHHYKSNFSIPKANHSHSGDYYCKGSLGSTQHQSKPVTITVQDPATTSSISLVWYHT


How the values were obtained:
[1] = molecular target: T1, mouse FcγRII extracellular domain, …; test: ELISA, captured FcγR-GST;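 further: antibody variants applied as dilution series to receptor wells, with retained antibody read out via an HRP-linked goat F(ab′)2 fragment recognizing human Fab′2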
Protocol: (§1) Binding of the variant antibodies to Fcγ receptors was evaluated using an ELISA-based assay. […] Dilutions of the variant antibodies were added and allowed to bind followed by washing of the wells to remove unbound antibody. […] Bound antibody was detected with an HRP-coupled, Fab′2 fragment of a goat anti-huFab′2 antibody.

[2] = molecular target: T2, mouse FcγRI extracellular domain, …; test: ELISA, captured FcγR-GST;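 further: antibody variants applied as dilution series to receptor wells, with retained antibody read out via an HRP-linked goat F(ab′)2 fragment recognizing human Fab′2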
Protocol: as §1

[3] = molecular target: T6, human FcγRI extracellular domain, His-tagged GST fusion (human, UniProt P12314 16-292); test: ELISA, captured FcγR-GST;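 further: antibody variants applied as dilution series to receptor wells, with retained antibody read out via an HRP-linked goat F(ab′)2 fragment recognizing human Fab′2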
T6 construct: extracellular domain; also called hFcgRI; FcγRIA; not shown: C-terminal Gly/His6/GST tag

[4] = molecular target: T3, human FcγRIIb extracellular domain, …; test: ELISA, captured FcγR-GST;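 further: antibody variants applied as dilution series to receptor wells, with retained antibody read out via an HRP-linked goat F(ab′)2 fragment recognizing human Fab′2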
Protocol: as §1

[5] = molecular target: T4, human FcγRIIa extracellular domain, …; test: ELISA, captured FcγR-GST
Protocol: as §1

[6] = molecular target: T5, mouse FcγRIII extracellular domain, …; test: ELISA, captured FcγR-GST
Protocol: as §1

[7] = molecular target: T7, human FcγRIII (CD16) on NK cells (human, UniProt P08637 17-254); test: cell-based or functional assay
[8] = molecular target: T3, human FcγRIIb extracellular domain, …; test: ELISA, FcγR-His-GST captured by anti-GST, complexed IgG
Protocol: (§2) MaxiSorp 96-well microwell plates (Nunc, Roskilde, Denmark) were coated with 2 μg/ml anti-GST (clone 8E2.1.1, Genentech), at 100 μl/well in 50 mM carbonate buffer, pH 9.6, at 4° C. overnight. Plates were washed with PBS containing 0.05% polysorbate, pH 7.4 (wash buffer) and blocked with PBS containing 0.5% BSA, pH 7.4, at 150 μl/well. After an hour incubation at room temperature, plates were washed with wash buffer. […] The plates were incubated for one hour and washed with wash buffer. For low affinity Fcγ receptors IIa, IIb, III (F158) and high affinity III (V158), antibodies were incubated with goat F(ab′)₂ anti-κ (Cappel, ICN Pharmaceuticals, Inc., Aurora, Ohio) or anti-λ. (BioSource, Camarillo, Calif.) antibody at a 1:2 (w/w) ratio for 1 hour to form antibody complexes. […] After a two-hour incubation, plates were washed with wash buffer. Bound IgG was detected by adding peroxidase labeled goat F(ab′)₂ anti-human IgG F(ab′)₂ (Jackson ImmunoResearch, West Grove, Pa.) at 100 μl/well in assay buffer. After a one-hour incubation, plates were washed with wash buffer and the substrate 3,3′,5,5′-tetramethyl benzidine (TMB) (Kirkegaard & Perry Laboratories) was added at 100 μl/well. The reaction was stopped by adding 1 M phosphoric acid at 100 μl/well. Absorbance was read at 450 nm on a multiskan Ascent reader (Thermo Labsystems, Helsinki, Finland).
(§3) The absorbance at the midpoint of the standard curve (mid-OD vs. ng/ml) was calculated. The corresponding concentrations of standard and samples at this mid-OD were determined from the titration curves using a four-parameter nonlinear regression curve-fitting program (KaleidaGraph, Synergy software, Reading, Pa.). The relative activity was calculated by dividing the mid-OD concentration of standard by that of sample.

[9] = molecular target: T4, human FcγRIIa extracellular domain, …; test: as above
Protocol: as §2, §3

[10] = molecular target: T6, human FcγRI extracellular domain, …; test: ELISA, FcγR-His-GST captured by anti-GST
Protocol: as §2, §3

[11] = molecular target: T7, human FcγRIII (CD16) on NK cells; test: cell-based or functional assay; remark: listed apart in the source

Binder | fold improvement in binding vs Herceptin (EC50herceptin/EC50sample) [1] [fold] | fold improvement in binding vs Herceptin (EC50herceptin/EC50sample) [2] [fold] | fold improvement in binding vs Herceptin (EC50herceptin/EC50sample) [3] [fold] | fold improvement in binding vs Herceptin (EC50herceptin/EC50sample) [4] [fold] | fold improvement in binding vs Herceptin (EC50herceptin/EC50sample) [5] [fold] | fold improvement in binding vs Herceptin (EC50herceptin/EC50sample) [6] [fold] | ADCC on BJAB cells with NK cells, relative fold increase compared to 9.1RF [7] [fold] | binding relative to 9.1-RF [8] | binding relative to 9.1-RF [9] | binding relative to 9.1-RF [10] | ADCC on BJAB cells with NK cells, relative EC50 values against 9.1RF [11] [fold]
9.1(5) (antibody, human IgG1, kappa, Fc variant of 9.1RF, expressed in CHO; also called 9.1RF S298A/K326A/E333A/K334A) heavy: EVQLVESGGGLVQPGGSLRLSCAASGFTVTAYYMSWVRQAPGKGLEWVGFIRDKANGYTTEYNPSVKGRFTISRDTSKNTFYLQMNSLRAEDTAVYYCAQVRRALDYWGQGTLVTVSSASTKGPSVFPLAPSSKSTSGGTAALGCLVKDYFPEPVTVSWNSGALTSGVHTFPAVLQSSGLYSLSSVVTVPSSSLGTQTYICNVNHKPSNTKVDKKVEPKSCDKTHTCPPCPAPELLGGPSVFLFPPKPKDTLMISRTPEVTCVVVDVSHEDPEVKFNWYVDGVEVHNAKTKPREEQYNATYRVVSVLTVLHQDWLNGKEYKCKVSNAALPAPIAATISKAKGQPREPQVYTLPPSREEMTKNQVSLTCLVKGFYPSDIAVEWESNGQPENNYKTTPPVLDSDGSFFLYSKLTVDKSRWQQGNVFSCSVMHEALHNHYTQKSLSLSPG light: DIQMTQSPSSLSASVGDRVTITCKSSQSLLYSSNQNNYLAWYQQKPGKAPKLLIYWASTRESGVPSRFSGSGSGTDFTLTISSLQPEDFATYYCQQYYTYPYTFGQGTKVEIKRTVAAPSVFIFPPSDEQLKSGTASVVCLLNNFYPREAKVQWKVDNALQSGNSQESVTEQDSKDSTYSLSSTLTLSKADYEKHKVYACEVTHQGLSSPVTKSFNRGEC | 1.3 | 1.9 | 0.6 | 0.7 | 0.2 | 1.2 | 3 |  |  |  | 
9.1(8) (antibody, human IgG1, kappa, Fc variant of 9.1RF, expressed in CHO; also called 9.1RF 239D/298A/332E) heavy: EVQLVESGGGLVQPGGSLRLSCAASGFTVTAYYMSWVRQAPGKGLEWVGFIRDKANGYTTEYNPSVKGRFTISRDTSKNTFYLQMNSLRAEDTAVYYCAQVRRALDYWGQGTLVTVSSASTKGPSVFPLAPSSKSTSGGTAALGCLVKDYFPEPVTVSWNSGALTSGVHTFPAVLQSSGLYSLSSVVTVPSSSLGTQTYICNVNHKPSNTKVDKKVEPKSCDKTHTCPPCPAPELLGGPDVFLFPPKPKDTLMISRTPEVTCVVVDVSHEDPEVKFNWYVDGVEVHNAKTKPREEQYNATYRVVSVLTVLHQDWLNGKEYKCKVSNKALPAPEEKTISKAKGQPREPQVYTLPPSREEMTKNQVSLTCLVKGFYPSDIAVEWESNGQPENNYKTTPPVLDSDGSFFLYSKLTVDKSRWQQGNVFSCSVMHEALHNHYTQKSLSLSPG light: DIQMTQSPSSLSASVGDRVTITCKSSQSLLYSSNQNNYLAWYQQKPGKAPKLLIYWASTRESGVPSRFSGSGSGTDFTLTISSLQPEDFATYYCQQYYTYPYTFGQGTKVEIKRTVAAPSVFIFPPSDEQLKSGTASVVCLLNNFYPREAKVQWKVDNALQSGNSQESVTEQDSKDSTYSLSSTLTLSKADYEKHKVYACEVTHQGLSSPVTKSFNRGEC | 7.6 | 24 | 0.7 | 3.5 | 0.9 | 4 | 12 |  |  |  | 
9.1-RF N434A (antibody, human IgG1, kappa, also called 9.1RF-IgG (N434X), X = A) heavy: not shown light: DIQMTQSPSSLSASVGDRVTITCKSSQSLLYSSNQNNYLAWYQQKPGKAPKLLIYWASTRESGVPSRFSGSGSGTDFTLTISSLQPEDFATYYCQQYYTYPYTFGQGTKVEIKRTVAAPSVFIFPPSDEQLKSGTASVVCLLNNFYPREAKVQWKVDNALQSGNSQESVTEQDSKDSTYSLSSTLTLSKADYEKHKVYACEVTHQGLSSPVTKSFNRGEC |  |  |  |  |  |  |  | 0.45 | 0.66 | 0.97 | 
9.1-RF N434W (antibody, human IgG1, kappa, also called Hu9.1RF IgG1 with an N434W mutation; Control (agonistic positive control)) heavy: not shown light: DIQMTQSPSSLSASVGDRVTITCKSSQSLLYSSNQNNYLAWYQQKPGKAPKLLIYWASTRESGVPSRFSGSGSGTDFTLTISSLQPEDFATYYCQQYYTYPYTFGQGTKVEIKRTVAAPSVFIFPPSDEQLKSGTASVVCLLNNFYPREAKVQWKVDNALQSGNSQESVTEQDSKDSTYSLSSTLTLSKADYEKHKVYACEVTHQGLSSPVTKSFNRGEC |  |  |  |  |  |  |  | 0.4 | 0.64 | 1 | 
9.1(7) (antibody, human IgG1, kappa, Fc variant of 9.1RF, expressed in CHO; also called 9.1RF 239D/332E) heavy: not shown light: DIQMTQSPSSLSASVGDRVTITCKSSQSLLYSSNQNNYLAWYQQKPGKAPKLLIYWASTRESGVPSRFSGSGSGTDFTLTISSLQPEDFATYYCQQYYTYPYTFGQGTKVEIKRTVAAPSVFIFPPSDEQLKSGTASVVCLLNNFYPREAKVQWKVDNALQSGNSQESVTEQDSKDSTYSLSSTLTLSKADYEKHKVYACEVTHQGLSSPVTKSFNRGEC | 19 | 62 | 0.7 | 17 | 5.3 | 9.9 | 7 |  |  |  | 
9.1(6) (antibody, human IgG1, kappa, Fc variant of 9.1RF, expressed in CHO; also called 9.1RF S298A/E333A/K334A) heavy: EVQLVESGGGLVQPGGSLRLSCAASGFTVTAYYMSWVRQAPGKGLEWVGFIRDKANGYTTEYNPSVKGRFTISRDTSKNTFYLQMNSLRAEDTAVYYCAQVRRALDYWGQGTLVTVSSASTKGPSVFPLAPSSKSTSGGTAALGCLVKDYFPEPVTVSWNSGALTSGVHTFPAVLQSSGLYSLSSVVTVPSSSLGTQTYICNVNHKPSNTKVDKKVEPKSCDKTHTCPPCPAPELLGGPSVFLFPPKPKDTLMISRTPEVTCVVVDVSHEDPEVKFNWYVDGVEVHNAKTKPREEQYNATYRVVSVLTVLHQDWLNGKEYKCKVSNKALPAPIAATISKAKGQPREPQVYTLPPSREEMTKNQVSLTCLVKGFYPSDIAVEWESNGQPENNYKTTPPVLDSDGSFFLYSKLTVDKSRWQQGNVFSCSVMHEALHNHYTQKSLSLSPG light: DIQMTQSPSSLSASVGDRVTITCKSSQSLLYSSNQNNYLAWYQQKPGKAPKLLIYWASTRESGVPSRFSGSGSGTDFTLTISSLQPEDFATYYCQQYYTYPYTFGQGTKVEIKRTVAAPSVFIFPPSDEQLKSGTASVVCLLNNFYPREAKVQWKVDNALQSGNSQESVTEQDSKDSTYSLSSTLTLSKADYEKHKVYACEVTHQGLSSPVTKSFNRGEC | 0.4 | 2.5 | 0.7 | 0.4 | 0.2 | 0.6 | 3 |  |  |  | 2.8
